Test results reported in publication PMC9969015.

Target: integrins on T cells
Assay: flow cytometry on cells
Settings: read off a plot

Row | Substance | response (parent: est. 21) [MFI] | response (parent: est. 36) [MFI]
1 | S-RBD protein with C-terminal human Fc-tag (receptor-binding domain of SARS-CoV-2 S protein) D405E | 5 | 6.5
2 | S-RBD protein with C-terminal human Fc-tag (receptor-binding domain of SARS-CoV-2 S protein) D442E | 8 | 9
3 | S-RBD protein with C-terminal human Fc-tag (receptor-binding domain of SARS-CoV-2 S protein) D586E | 2 | 2.5
